# Assay results published in the nanobody polyreactivity screen of Harvey et al. (2022).
# Test: yeast display, Sf9 membrane polyspecificity reagent, FACS + sequencing; frameworks hold sequencing errors
# Procedure, shortened: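 Using colony PCR, genes from sorted yeast display clones were amplified, then sequenced on MiSeq at 2 × 250 and filtered by CDR length. The clones had been stained with 10% biotinylated, detergent-solubilized Sf9 membrane reagent for 1 hour at 4 °C and sorted by FACS into low and high (top ~1%) gates on anti-HA and streptavidin fluorescence. Polyreactivity labels come from the gate of origin.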
row,Sequence,polyreactivity (PSR sort gate)
1,QVQLVESGGGLVQAGGILRLSCAASGRTFGINAMGWYRQAPGKERELVARIRKTVGSTYYADSVKGRFTISRDNAKNTVYLQMNSLKPEDTAVYYCAADLRYGYLYPYDSWGQGTQVTVSS,high polyreactivity
2,QVQLVESGGGLVQAGGSLRLSCAASGSTFGKYAMGWYRQAPGKERELVASISRSGASTYYADSVKGRFTISRDNAKNTVYVQMNSQKPEDTAVYYCNKARNPEGYWRYDYWGQGTQVTVSS,high polyreactivity
3,QVQLVESGGGLVQAGGSLRLSCAASGSIFEENAMGWYRQAPGKERELVAAITIGGRTNYADSVYGRFTISRDNAKNTVYLQMNSLKPEDTAVYYCAADLSSNKYWRFWTRYYYWGQGTQVTVSS,low polyreactivity
4,QVQLVESGGGLVQAGGSLRLSCAASGSIFSWYAMGSYTQAPGKESELVAAITRGGSTYADSVKGRFTISRDNAKNTVYLQMNSLKPEDTAVYYCNAVYGVYDFNYWGQGTQVTVSS,low polyreactivity
5,QVQLVESGGGLVQAGGSLRLSCAASGSIFGRNAMGWYRQAPGKERELVADIWNGGSTYYADAVKGRFTISRDNAKNTVYLQMNSLKPEDTAVYYCNADADDVGRFGGYIKYDYWGQGTQVTVSS,low polyreactivity
6,QVQLVESGGGLVQAGGSLRLSCAASGSTFGSNDLGWYRQAPGQERELVAAITWSGGSTFYADSVKGRFTISRDNAKNTVYLQMNSLKPEDTALYSCAVSTEVNRYHAKYDYRGQGTQVTVSS,low polyreactivity
7,QVQLVESGGGLVQAGGSLRLSCAASGSTFYHYAMVWYRQAPGKERELVAAISSSGGRTYYADSVKGRFTISRDNAKNTVYLKMNSLKPEDTAVYYCAARAKTSGSIEDYWGQGTQVTVSS,high polyreactivity
8,QVQLVESGGGLVQAGGSVRLSCAASGISFQYNALGWYRQAPGTERELVAGITWSGTSTYFADSVKGRFTISRDNAKNTVYLQLNSMKPEDTAVYYCAAVRGYRGYDYWGQGTQGTVSS,high polyreactivity
9,QVQLVESGGGLVQAGGSLRLSCAASGRIFRYYAMGGYRQAPGKERELVATISRSGGSTFYAYSVKGRFTISRDNAKNTVYLQMNSLKPEDTAVYYCNARYQTGGYGYWGQGTQVTVSS,high polyreactivity
10,QVQLVESGGGLVQAGGSLRLSCAASGRIFKWYAMGWYRQAPGKEREFVAGIRWGGGRTHYADSVKGRFTISRDNAKNTVYLQMNSLKPEDTAVYYCAATSIGRYKSRLDYWGQGTQVTVSS,high polyreactivity
11,HVQLVESGGGLVQAGGSLRLSCAASGRTLRRNAMGWYRQAPGKERELVAAINYSGANTYYADSVKGRFTISRDNAKNTVYLQMNSLKPEDTAVYYCAAASTSYRGISGGDYWGQGTQVTVSS,high polyreactivity
12,QVQLVESGGGLVQAGGSLRLSCAASGRIFRRYAMGWYRQAPGKERELVAALTRSGGSTYYADSVKGRFTISRDNAKNTVYLQMNSLKPEDTAVYYCYAPSSLGTDYDYWGQGTQVTVSS,high polyreactivity
13,QVQLVESGGGLVQAGGSLRLSCAASGRIFSPYAMGWYRQAPGKERELVAAISGRGGRTYYADSVKGRFTISRDNAKNTVYLQMNSLKPEDTAVYYCNRVVSGYPGSDYWGQGTQVTVSS,high polyreactivity
14,QVQLVESAGGLVQAGGSLRLSCDASGSILDSNAMGWYRQAHGKERELVAAITSGGSTYYADSVKGRFTISRDNAKNTVYLQMNSLKPEDTAVYYCAAVDIYKYYQYYAFPYYRYDSWGQGTQVTVSS,low polyreactivity
15,QVQLVESGGGLVQAGGRLRLSCAASGGIFESYAMGWYRQAPGKERELVATITGSGGNTYYADSVKGRFTISRDNAKNTVYLQMNSLKPEDTAVYYCAADTYITPHYLPLLYFLMEYWGQGTQVTVSS,low polyreactivity
16,QVQLVESGGGLVQAGGSLRLRCAASGSIFPLYAMGWYRQAPGKERELVAAITSSGGRTYYADSVKGRFTISRDNAKNTVYLQMNSLKPEDTAVYYCNAGYYVRRDYDYWGQGTQVTVSS,low polyreactivity
17,QVQLVESGGVLVQAGGSLRLSCAASGITFNSYAMGWYRQAPGKERELVASISWIGGSTYYADSVKGRFTISRDNAKNTVYFQMNSLKPEDTAVYYCAVDKGTDYYYDVDYWGQGTQVTVSS,low polyreactivity
18,QVQLVESGGGLVQAGGSLRLSCAASGLILRKYAMGWYRQAPGKEREFVAAITQTGSRSYYADSVKGRFTISRDNAKNTVYLQMNSLKPEDTAVYYCAARGTRAYRTYDYWGQGTQVTVSS,high polyreactivity
19,QVQLVESGGGLVQAGGSLRLSCAASGRILELNAMGWYRQAPGKERELVAGISNSGDTTYYADSVKGRFTISRDNAKNTVYLQMNSLKPEDTAVYYCNADGVVTWYDYWGQGTQVTVSS,low polyreactivity
20,QVQLVESAGGLVQAGGSLRLSCAASGRTFYSYAMGWSRQAPGKEREFVAAITKSGGSTYYADSVKGRFTISRDNAKNTVYLQMNSLKPEDTAVYYCAAGLVATFSRPGRASYRYNYWGQGTQVTVSS,high polyreactivity

row,Sequence,polyreactivity (PSR sort gate)
1,QVQLVESGGGLVQAGGSLRLSCAASGYTFGSYAMGWYRPAPGKERELVAAITPGGSTYYADSVKGRFTISRDNAKNTVYLQMNSLKPEDTAVYYCNRATRYWKAYYWFKTMDYWGQGTQVTVSS,high polyreactivity
2,QVQLVESGGGLVQAGGSLRLSCAASGRTFQLYAMGWYRQAPGKQRELVAAIRTGGSTNYADSVKGRFTISRDNAKNTVYLQMNSLKPEDTAVYYCAAVQRTDRSAHYSWGQGTQVTVSS,low polyreactivity
3,QVHLVESGGGLVQAGGSLRLSCAASGRIIRYNAMGWYRQAPGKERELDAAITRSGGSTYYADSVKGRFTISRDNAKNTVYLQMNSLKPEDTGVYYCAKVQNGQWSTSGVPGDYQYNYWGQATQVTVSS,high polyreactivity
4,QVQLVESGGGLVQAGGSLRLSCAASGFTLDWYVMGWYRQAPRKERELFAAISSSGGRTYYADSVKGRFTISRDNAKNSVYLQMNSLKPEDTAVYYCAAGTYYRVGRGRRVSFVYWGQGTQVTVSS,high polyreactivity
5,QVQLVESGGGLVQAGGSLRLSCADSGITLQSYAMGWYRQAPGKERELVAAITSGSSTHYADSVKGRFTISRYNAKYTVYLQMYSLKPEDTAVYYCAADRVYFGDLFVVYYFIQYDFWGQGTQVTVSS,low polyreactivity
6,QVQLVESGGGLVQEGGSLRLSCAASGSTFSIYAMGWYRQAPGKERELVAGISGSGGSTYYADSVKGRFTISRDNAKNTVYLQMNSLKPEDTAVYYCAKRVLWGLDYCGQGTQVTVSS,low polyreactivity
7,QVQLVESGGGLVQAGGSLRLSCAASGLIFAKYAMGWYRQAPGKERELVAGITSGGGTYYADSVKGRFTISRDNAKNTVYLQMNSLKPEDTAVYYCAVGREYFRWIRYDYDYWGQGTQVTVSS,low polyreactivity
8,QVQLVESGGGLVQAGGSLRLSCAASGSIFQPYAMGWYRPAPGKERELVAAINGRGGSTHYADSVKGRFTISRDNAKNTVYLQMNSLNPEDTAVYYCAATWAYPGSGYVYFYGNDYWGQGTQVTVSS,high polyreactivity
9,QVQLVESGGGLVQAGGSLRLSCAASGRTFYNYAMGWYRQAPGKEREFVAAISSSGGSTYYADSVKGRFTISRDNAKNTVYLQMNSLKPEDTAVYYCAAYYISFDYWGQGTKVTVSS,high polyreactivity
10,QVQLVESGGGLVQAGGSLRLSCATSGRTFWFYAMGWYRQAPGKERELVAAISSGGSTNYADSVKGRFTISRDNAKNTVYLQMNSLKPEVTAVYYCAKVGNIPYGTRYYSNRYDYWGQGTQVTVSS,low polyreactivity
11,QVQLVETGGGLVQAGGSLRLSCAASGSIFIYFAMGWYRQAPGKERELVAAIDRSGGNTYYADSVKGRFTLSRDYAKNTVYLQMNSLKPEDTAVYYCAALVHRRVQYDYWGQGTQVTVSS,high polyreactivity
12,QVQLVESGGGLVQAGGSLRLSCAASGSISGSYAMGWYRQAPGKERELVASITTSGGGTYYADSVKGRFTISRDNAKNTVYLQMNSLKPEDTAVFYCAVEYGYPYAGLDYWGQGTQVTVSS,low polyreactivity
13,QVQLVESGGGLVQAGGSLRLSCAASGFIFGYNAMGWYRQAPGKERELVAAITASGGSTYYADSVKGRFTISRDNAKNTVYLQMNSLKPEDTAVYYCATVLRKNGERVNRLYYWGQGTQVTVSS,high polyreactivity
14,QVQLVESGGGLVQAGGSLRLSCAASGFILSPYAMGWYRQAPGKERELGAVITISGGSTYYADSVKGRFTISRDNAKNTVYLQMNSLKPEDTAVYYCAADYYDLVYDYYYWGQGTQVTVSS,high polyreactivity
15,QVQLVESGGGLVQAGGSLRLSCAASGRNFGSYAMGWYRQAPGKERELVAAITSGGSTYYADSVKGRFTISRDNAKNTVYLQMNSLKPEDTAVYYCAARQVRTSKLHMGYWGQGTQVTVSS,low polyreactivity
16,QVQLVESGGGLVQAGGSLRISCAASGSIFDSKAMGWYRQAPGKERELVASFTSSGGSTYYADSVKGRFTISRDNAKNTVYLPRNSRKPEDTAVYYCAADSYKTIQDAYDYWGQGTQVTVSS,high polyreactivity
17,QVQLVESGGGLVQAGGSLRLSCAASGLIFSSNAMGWYRQAPGKERELVATISWSGGSTYYADSVKGRFTISRDNAKNTVYLQMNSLKPEDTAVYYCAAVTHPAWAVEYDYWGQGTQVTVSS,high polyreactivity
18,QVQLVESGGGLVQAGGSLRISCAASGLIIAYAMGWYRPAPGKERELVAASSGRDGSTYYADSVKGRFTISRDNAKNTVYLHMNSLKPEATAVYYCAKRISYLPVEMDYWGQGTQLTVSS,low polyreactivity
19,QVQLVESGGGLVQAGGSLRLSCSASGSIFGSYAMGWYRQAPGKERELVARINTRGGSTYYADSVKGRFTISRDNAKYTVYIQMNSLKPADTAVYYCAKERRASVVRYDYWGQGTQVTVSS,low polyreactivity
20,QVHLVESGGGLVQAGGSLRLSCAASGSTFRGYGMGWYRQAPGKERELVAAISWRAASTYYADSVKGRFTISRDNAKNTVYLQMNSLKPEDTAVYYCAARYSFSSSTRYYYWGQGTQVTVSS,high polyreactivity
